For one molecule, Kd results are on record in CN114395037A (SHENZHEN PEOPLE HOSPITAL, dated 2022).

For the assay, the target named is T1, CRT N+P结构域 (CALR N+P) (UniProt P27797 18-308).
T1 construct: range 18-308; The ELISA and SPR sections say only 'CRT蛋白' or '纯化抗原蛋白'; also called CRT蛋白; 钙网蛋白; not shown: His tag (Ni purification, anti-His WB)
T1 sequence (looked up): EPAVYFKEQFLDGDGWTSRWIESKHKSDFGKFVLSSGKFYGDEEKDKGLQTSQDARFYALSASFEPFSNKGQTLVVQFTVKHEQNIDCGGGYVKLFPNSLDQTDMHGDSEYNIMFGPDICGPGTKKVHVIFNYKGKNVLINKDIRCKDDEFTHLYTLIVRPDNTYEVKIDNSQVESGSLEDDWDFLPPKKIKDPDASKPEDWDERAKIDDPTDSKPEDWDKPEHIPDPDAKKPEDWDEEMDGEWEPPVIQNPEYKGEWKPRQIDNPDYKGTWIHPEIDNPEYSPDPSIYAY
Put plainly: SPR (Biacore), antigen protein immobilised on the chip, nanobody as analyte.

B1: 204纳米抗体 (VHH)
VHH: AVQLVESGGGLVQAGGSLRLSCVASGRPFSLYAVGWFRQAPGKAREFVAAISRSGSTTDHADSVKGRFTVSRDNDANTVSLLMSNLKPEDTAIYYCAAARSTRGYDYWGQGTQVTVSS
notes: Alpaca-derived nanobody from a naive phage display library, expressed in E. coli with an HA tag; not shown: fused HA tag (and a tag for Ni purification, vector PET-14B)
As a reminder, the Kd is the concentration at which binding is half-saturated. A lower Kd goes with tighter binding. As to B1, the Kd was 0.53 nM.
